Experimental data from the supplement of paper PMC7125110.
± gives the standard error. Variants at the floor of the assay were thinned out.

B1: glmS ribozyme (parent)
chain: AUAAAAGCGCCAGAACUACAGAAAUGUAGUUGACGAGGAGGAGGUUUAUCGAAUUUUCGGCGGAUGCCUCCAAA

Columns and labels:
Conditions in all cases: with glucosamine-6-phosphate
glucosamine-6-phosphate [1] = variants of: B1; test: self-cleavage kobs at 40 uM GlcN6P; higher = faster cleavage; RNA array
How it was run: (§1)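 A hybridised Cy3 probe tracked barcoded ribozyme variants, transcribed in situ by E. coli RNA polymerase on sequenced MiSeq chips, at 37 °C. The variants received 40 μM to 10 mM glucosamine-6-phosphate in HEPES/KCl/Mg(OAc)2 buffer. kobs came from decay fits and kcat and KM from weighted Michaelis–Menten fits.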

glucosamine-6-phosphate [2] = variants of: B1; test: self-cleavage kobs at 10000 uM GlcN6P; higher = faster cleavage; RNA array
How it was run: as §1

glucosamine-6-phosphate [3] = variants of: B1; test: self-cleavage kobs at 160 uM GlcN6P; higher = faster cleavage; RNA array
How it was run: as §1

glucosamine-6-phosphate [4] = variants of: B1; test: self-cleavage kobs at 640 uM GlcN6P; higher = faster cleavage; RNA array
How it was run: as §1

glucosamine-6-phosphate [5] = variants of: B1; test: self-cleavage kobs at 2500 uM GlcN6P; higher = faster cleavage; RNA array
How it was run: as §1

Variant	self-cleavage kobs at 40 uM GlcN6P (glucosamine-6-phosphate [1])	self-cleavage kobs at 10000 uM GlcN6P (glucosamine-6-phosphate [2])	self-cleavage kobs at 160 uM GlcN6P (glucosamine-6-phosphate [3])	self-cleavage kobs at 640 uM GlcN6P (glucosamine-6-phosphate [4])	self-cleavage kobs at 2500 uM GlcN6P (glucosamine-6-phosphate [5])
G32U U49G A53C	< 1e-05 s⁻¹	–	–	–	–
A12C A15C U47A U49A	< 1e-05 s⁻¹	< 1e-05 s⁻¹	–	–	–
A36C G51A	< 1e-05 s⁻¹	< 1e-05 s⁻¹	–	–	–
G7A G51A C67A	< 1e-05 s⁻¹	< 1e-05 s⁻¹	–	–	–
A12U C68G C70G	< 1e-05 s⁻¹	–	–	–	–
G43U C61A	< 1e-05 s⁻¹	< 1e-05 s⁻¹	< 1e-05 s⁻¹	< 1e-05 s⁻¹	< 1e-05 s⁻¹
A36G A52G	< 1e-05 s⁻¹	< 1e-05 s⁻¹	< 1e-05 s⁻¹	< 1e-05 s⁻¹	–
U31G G44A G51U C61U C70G	< 1e-05 s⁻¹	–	–	–	–
G7U A14U	< 1e-05 s⁻¹	< 1e-05 s⁻¹	< 1e-05 s⁻¹	< 1e-05 s⁻¹	–
G44C U49G	< 1e-05 s⁻¹	< 1e-05 s⁻¹	–	–	< 1e-05 s⁻¹
A15G A48U U57C	< 1e-05 s⁻¹	< 1e-05 s⁻¹	< 1e-05 s⁻¹	–	< 1e-05 s⁻¹
A36G G62U	< 1e-05 s⁻¹	< 1e-05 s⁻¹	–	< 1e-05 s⁻¹	< 1e-05 s⁻¹
C10G U47G	< 1e-05 s⁻¹	< 1e-05 s⁻¹	–	–	–
C8G U55C C61U	< 1e-05 s⁻¹	–	–	< 1e-05 s⁻¹	< 1e-05 s⁻¹
G41C G66A U69C	< 1e-05 s⁻¹	–	< 1e-05 s⁻¹	–	–
G7U A42G U49G C70G	< 1e-05 s⁻¹	–	–	–	–
A12C G38C A42U	< 1e-05 s⁻¹	< 1e-05 s⁻¹	–	–	–
G7U G62A	< 1e-05 s⁻¹	–	< 1e-05 s⁻¹	< 1e-05 s⁻¹	< 1e-05 s⁻¹
C16U G40A	0.000204 ± 2e-05 s⁻¹	0.00622 ± 0.00083 s⁻¹	0.000448 ± 7e-05 s⁻¹	0.000996 ± 0.00017 s⁻¹	0.00398 ± 0.00098 s⁻¹
A33U G44U A52U	< 1e-05 s⁻¹	–	< 1e-05 s⁻¹	< 1e-05 s⁻¹	< 1e-05 s⁻¹
G7A C67G	< 1e-05 s⁻¹	–	–	< 1e-05 s⁻¹	< 1e-05 s⁻¹
G29A G43C	< 1e-05 s⁻¹	< 1e-05 s⁻¹	< 1e-05 s⁻¹	< 1e-05 s⁻¹	–
C8U G9A A15C A36G U49C U57G	< 1e-05 s⁻¹	–	–	–	–

Variant	self-cleavage kobs at 40 uM GlcN6P (glucosamine-6-phosphate [1])	self-cleavage kobs at 10000 uM GlcN6P (glucosamine-6-phosphate [2])	self-cleavage kobs at 160 uM GlcN6P (glucosamine-6-phosphate [3])	self-cleavage kobs at 640 uM GlcN6P (glucosamine-6-phosphate [4])	self-cleavage kobs at 2500 uM GlcN6P (glucosamine-6-phosphate [5])
C10G C34A A48C U49C	< 1e-05 s⁻¹	–	–	–	–
U31G G63A	< 1e-05 s⁻¹	< 1e-05 s⁻¹	< 1e-05 s⁻¹	< 1e-05 s⁻¹	< 1e-05 s⁻¹
G13A U46C C67A	< 1e-05 s⁻¹	–	–	< 1e-05 s⁻¹	–
G7U C8G A12U U49G	< 1e-05 s⁻¹	< 1e-05 s⁻¹	< 1e-05 s⁻¹	< 1e-05 s⁻¹	< 1e-05 s⁻¹
A14U A48C G51C U65G	< 1e-05 s⁻¹	< 1e-05 s⁻¹	–	–	–
A6G A52G	< 1e-05 s⁻¹	–	< 1e-05 s⁻¹	–	–
G41U U45C U54G C67U C71G	< 1e-05 s⁻¹	–	< 1e-05 s⁻¹	< 1e-05 s⁻¹	–
A53G C71G	0.000153 ± 2e-05 s⁻¹	–	–	0.000377 ± 5.8e-05 s⁻¹	0.00062 ± 0.00013 s⁻¹
A39U G40U C70U	9.82e-05 ± 1.8e-05 s⁻¹	0.00219 ± 0.00054 s⁻¹	0.000392 ± 6.8e-05 s⁻¹	0.000466 ± 7.4e-05 s⁻¹	0.00127 ± 0.0003 s⁻¹
A33G G63A U65G	< 1e-05 s⁻¹	–	–	–	–
A15U C34G G66U C71U	< 1e-05 s⁻¹	< 1e-05 s⁻¹	–	–	–
A33C G63U C67U	< 1e-05 s⁻¹	–	–	–	–
A33U G51C G60U G63U	< 1e-05 s⁻¹	–	–	–	–
C8A A48C	< 1e-05 s⁻¹	< 1e-05 s⁻¹	< 1e-05 s⁻¹	< 1e-05 s⁻¹	< 1e-05 s⁻¹
A12U A33C G37C	< 1e-05 s⁻¹	< 1e-05 s⁻¹	–	–	–
A14U G60U	< 1e-05 s⁻¹	< 1e-05 s⁻¹	< 1e-05 s⁻¹	< 1e-05 s⁻¹	< 1e-05 s⁻¹
C34A G63U	< 1e-05 s⁻¹	< 1e-05 s⁻¹	< 1e-05 s⁻¹	< 1e-05 s⁻¹	–
G9C A53U	< 1e-05 s⁻¹	< 1e-05 s⁻¹	< 1e-05 s⁻¹	< 1e-05 s⁻¹	< 1e-05 s⁻¹
A33U G40A G62C	< 1e-05 s⁻¹	–	–	–	–
U31G C34U	< 1e-05 s⁻¹	< 1e-05 s⁻¹	< 1e-05 s⁻¹	< 1e-05 s⁻¹	–
A15G G37C	< 1e-05 s⁻¹	4.76e-05 ± 6.4e-06 s⁻¹	–	–	–
G9C C11G G40A	< 1e-05 s⁻¹	< 1e-05 s⁻¹	–	–	–
G40C C61G	< 1e-05 s⁻¹	< 1e-05 s⁻¹	< 1e-05 s⁻¹	< 1e-05 s⁻¹	< 1e-05 s⁻¹
